Assay results: patent US20260275311, “CRISPR NUCLEASE POLYPEPTIDES AND GENE EDITING SYSTEMS COMPRISING SUCH” (ARBOR BIOTECHNOLOGIES, INC., published 2026)

Legend:
[1] = tested on: T1, Nuclease M E83R E83R; assay: cell_activity; conditions: PAM TTAAA; HEK293T
T1 sequence: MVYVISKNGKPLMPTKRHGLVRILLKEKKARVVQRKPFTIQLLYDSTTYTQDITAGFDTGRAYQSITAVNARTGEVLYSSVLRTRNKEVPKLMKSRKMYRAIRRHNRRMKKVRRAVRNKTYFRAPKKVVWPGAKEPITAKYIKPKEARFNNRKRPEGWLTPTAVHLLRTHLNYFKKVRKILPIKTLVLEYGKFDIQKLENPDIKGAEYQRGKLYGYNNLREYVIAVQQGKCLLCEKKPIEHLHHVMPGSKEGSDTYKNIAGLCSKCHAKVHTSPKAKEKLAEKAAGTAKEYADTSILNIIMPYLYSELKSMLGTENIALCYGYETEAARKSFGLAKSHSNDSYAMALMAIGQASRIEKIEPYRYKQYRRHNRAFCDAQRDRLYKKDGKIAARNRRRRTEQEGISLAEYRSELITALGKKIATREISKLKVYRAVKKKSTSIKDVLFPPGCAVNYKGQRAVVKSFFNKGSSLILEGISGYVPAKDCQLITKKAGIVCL

[2] = molecular target: T2, Nuclease K; assay: cell_activity; PAM NGG (GGG); HEK293T; conditions: tags: N-terminal SV40 NLS, C-terminal nucleoplasmin NLS
T2 chain: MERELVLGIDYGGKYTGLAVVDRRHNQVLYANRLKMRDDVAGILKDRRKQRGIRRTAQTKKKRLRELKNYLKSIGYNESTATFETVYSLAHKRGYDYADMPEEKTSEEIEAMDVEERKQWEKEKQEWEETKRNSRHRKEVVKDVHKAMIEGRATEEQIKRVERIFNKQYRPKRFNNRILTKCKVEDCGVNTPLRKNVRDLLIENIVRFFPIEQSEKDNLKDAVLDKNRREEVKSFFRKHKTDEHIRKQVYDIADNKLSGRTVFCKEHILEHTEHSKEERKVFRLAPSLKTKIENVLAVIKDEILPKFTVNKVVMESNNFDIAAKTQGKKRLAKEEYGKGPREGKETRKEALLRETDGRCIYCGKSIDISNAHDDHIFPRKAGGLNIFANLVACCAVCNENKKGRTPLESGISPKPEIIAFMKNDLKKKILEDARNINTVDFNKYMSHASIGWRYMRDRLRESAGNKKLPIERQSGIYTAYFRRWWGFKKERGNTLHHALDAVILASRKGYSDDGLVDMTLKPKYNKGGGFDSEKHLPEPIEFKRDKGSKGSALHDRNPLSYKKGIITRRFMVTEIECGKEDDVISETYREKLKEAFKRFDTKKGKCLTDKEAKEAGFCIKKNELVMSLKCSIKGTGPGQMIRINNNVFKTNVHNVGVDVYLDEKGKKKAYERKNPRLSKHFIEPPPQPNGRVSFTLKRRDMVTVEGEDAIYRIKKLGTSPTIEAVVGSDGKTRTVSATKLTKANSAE

[3] = molecular target: T3, Nuclease K D582R (D582R); assay: cell_activity; PAM NGG; HEK293T; conditions: tags: N- and C-terminal NLS
T3 chain: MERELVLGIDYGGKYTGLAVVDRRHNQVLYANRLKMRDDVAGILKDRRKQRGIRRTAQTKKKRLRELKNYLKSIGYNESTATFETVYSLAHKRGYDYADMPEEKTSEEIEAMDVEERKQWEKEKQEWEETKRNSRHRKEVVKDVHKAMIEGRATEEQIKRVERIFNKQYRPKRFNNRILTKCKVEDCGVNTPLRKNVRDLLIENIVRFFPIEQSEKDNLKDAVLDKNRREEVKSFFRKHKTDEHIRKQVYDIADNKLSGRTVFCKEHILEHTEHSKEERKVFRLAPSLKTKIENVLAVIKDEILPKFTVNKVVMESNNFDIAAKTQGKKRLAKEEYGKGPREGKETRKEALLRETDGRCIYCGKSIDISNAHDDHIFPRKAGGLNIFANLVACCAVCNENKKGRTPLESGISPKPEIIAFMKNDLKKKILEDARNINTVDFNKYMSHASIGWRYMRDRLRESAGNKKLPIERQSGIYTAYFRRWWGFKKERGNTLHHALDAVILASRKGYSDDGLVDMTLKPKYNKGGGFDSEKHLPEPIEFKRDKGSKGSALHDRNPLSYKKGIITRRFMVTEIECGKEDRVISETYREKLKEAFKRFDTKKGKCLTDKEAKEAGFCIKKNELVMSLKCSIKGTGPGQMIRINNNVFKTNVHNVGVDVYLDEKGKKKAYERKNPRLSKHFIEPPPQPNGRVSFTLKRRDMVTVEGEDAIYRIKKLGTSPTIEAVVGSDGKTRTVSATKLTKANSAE

[4] = molecular target: T4, Nuclease K D46R (D46R); assay: cell_activity; PAM NGG; HEK293T; conditions: tags: N- and C-terminal NLS
T4 chain: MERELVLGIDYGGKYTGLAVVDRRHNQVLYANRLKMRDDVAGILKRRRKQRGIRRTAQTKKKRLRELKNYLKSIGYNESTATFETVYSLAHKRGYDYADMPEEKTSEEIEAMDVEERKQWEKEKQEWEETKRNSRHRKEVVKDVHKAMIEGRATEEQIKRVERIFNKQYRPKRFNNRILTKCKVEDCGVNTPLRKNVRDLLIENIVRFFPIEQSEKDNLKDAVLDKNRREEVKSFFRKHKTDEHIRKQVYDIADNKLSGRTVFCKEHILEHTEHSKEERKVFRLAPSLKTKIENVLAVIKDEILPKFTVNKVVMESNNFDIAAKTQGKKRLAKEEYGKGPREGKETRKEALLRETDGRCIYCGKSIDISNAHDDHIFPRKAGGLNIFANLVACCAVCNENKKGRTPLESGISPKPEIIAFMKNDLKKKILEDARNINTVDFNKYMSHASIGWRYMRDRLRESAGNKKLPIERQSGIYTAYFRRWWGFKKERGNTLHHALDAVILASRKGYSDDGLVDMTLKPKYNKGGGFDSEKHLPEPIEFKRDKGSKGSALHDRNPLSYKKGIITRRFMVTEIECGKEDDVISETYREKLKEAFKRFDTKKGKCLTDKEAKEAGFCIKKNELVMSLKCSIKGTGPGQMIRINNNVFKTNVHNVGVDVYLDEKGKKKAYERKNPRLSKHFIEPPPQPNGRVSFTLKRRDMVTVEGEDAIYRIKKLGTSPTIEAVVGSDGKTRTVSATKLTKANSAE

[5] = molecular target: T2, Nuclease K; assay: cell_activity; PAM NGG (AGG); HEK293T; row labelled Reference SEQ ID NO: 1, text says Nuclease K; conditions: tags: N-terminal SV40 NLS, C-terminal nucleoplasmin NLS

GAGCCUGGUCCAUGGAGAGUGUCAACUACCCCCGUCUAAAGACGGAGGCAUGAGGUUUCGUAACCAAGUGUUGUACCUGCGGGUACAGUAGUUGAACAGGCGGCGAUGCGGCUGGGCACUCCAGGAUGCCACUCCCAGUCCCGGACACUGCCGACGAGCCGCAUCAAGCCGGGGGAGACCAACCGGCUAACGAUAGCCGAGCAAUUACCUAAAAAGAGGUGCAAAGGAAAUGGUAU / GAGCCTGGTCCATGGAGAGT / ACTCTCCATGGACCAGGCTC [Nuclease M VEGFA-T5 guide ; Nuclease M VEGFA-T5 target]
binding signal (fold vs Nuclease M) [1]: 1.71

B1: Nuclease K EMX1-T7 guide ; EMX1-T7 target (ssRNA ; dsDNA)
RNA: CUUUAGCAAGGGACUAUUCAGUUACAGUUAAGGCUCUGAAAAGAGCCUUAAUUGUAAAACGCCUAUACAGUGAAGGGAUAUACGCUUGGGUUUGUCCAGCCUGAGCCUCUAUGCCAGAAAUGGCGCCUUCAUCGUGGGUUAGGACAUUUAAAUUUAAAAACUAUUCAGCACUGUUUGCUCUUGUCAGCUUGGUGGCAGA
DNA 1: CTTTAGCAAGGGACTATTCA
DNA 2: TGAATAGTCCCTTGCTAAAG
activity [2]: 0.011 indel ratio
binding signal [3]: 31.8 fold vs Nuclease K
binding signal [4]: 9.86 fold vs Nuclease K

B2: Nuclease K AAVS1-T3 guide ; AAVS1-T3 target (ssRNA ; dsDNA)
RNA: UUGUGAGAAUGGUGCGUCCUGUUACAGUUAAGGCUCUGAAAAGAGCCUUAAUUGUAAAACGCCUAUACAGUGAAGGGAUAUACGCUUGGGUUUGUCCAGCCUGAGCCUCUAUGCCAGAAAUGGCGCCUUCAUCGUGGGUUAGGACAUUUAAAUUUAAAAACUAUUCAGCACUGUUUGCUCUUGUCAGCUUGGUGGCAGA
DNA 1: TTGTGAGAATGGTGCGTCCT
DNA 2: AGGACGCACCATTCTCACAA
activity [5]: 0.037 indel ratio
binding signal [3]: 3.68 fold vs Nuclease K
binding signal [4]: 6.71 fold vs Nuclease K
